# Laboratory results taken from paper PMC10509167, “Identification and characterization of endo-α-, exo-α-, and exo-β-D-arabinofuranosidases degrading lipoarabinomannan and arabinogalactan of mycobacteria” (Nature Communications, 2023).
# B1: ExoMA2 (MIAR_33170), GH116 exo-β-D-arabinofuranosidase from Microbacterium arabinogalactanolyticum, recombinant (enzyme, UniProt A0AAJ6N6D6 1-867, looked up)
# chain: MSKIKSRRARRIPHTAESVAFPLGGIGTGNVSLGARGELRDWEFENLPDKGRLNPRSFFAIHAAPQGGPSATRVLEARSSGRHDRDAGYGFDELAGLPRLDSAGLHGEYPVVDIDFTDATLPVTVSLHAFTPLVPLDADASGIPAAVLRYRVVNPGDAPVTVTVVGSMSHTAGRGAPGPDAPWGMRGTQSVRWRESDGIRGLDFDIDLDHDDPGYGTMSLTTTDSSTTVKPQWVTSYWPDGARLFWNDLADDGLLAPEARLTLEDKPRGLFAERDADPDAPALTEEQMLAKLPRVRTGSLGIVHTLAPGEERDFEFVLAWSFPNRRRGWHGHIIFDDALEDGAPDLRDELGPIVRNHYAVRWPDAWAAAAQLHRDLPALEGATDAFVEELYGGSLDPVLADAVGANIAALRSTTCFVLESPTPELGDGPVFAAWEGSFDHGGSCEGTCTHVWSYAQTAAWLFPGLERSARRAEYLLETDESGAQKFRGNRIFGAPRWFIGPAVDGQLGTFLRLHREWRFCGDDEFLRELWPAAARTLDYAAREWDHDGDGLLDGEMHNTYDIEFHGVEPLSNIIHLAALRAGVRMAGHLGDTARAQEWALRADHVAAAIEGVLWNGEYYRQVIDDVDAHRYQYGDGVLSDQLLGQFHAFLGGLGYLLPEAHVRSALDAIVQHNHRGDLRDHESTQRVYALNDEGGLLLASWPEGGRPALPFVYADEVWTGIEHQVAVSLLFAGRYDDALRIERTLRARYDGAHRSPWNEIECGNHYARSLASWGLLIGASGAQWDAGARTLSFDPVLPGDARFLFTTATGWGGVEIGDDVITLRLHGGALDLDELRLRGEVAGRGIHLDAGETRTLTLTLEHHHHHH
# notes: ExoMA2, product of gene MIAR_33170 of Microbacterium arabinogalactanolyticum JCM 9171; primers are in Supplementary Data 3; source: E. coli BL21 (DE3), purified (IMAC, anion exchange chromatography, SEC)
# Target: the molecule itself
# Assay: crystal structure; ExoMA2 in complex with Tris (1.75 Å) and with β-D-Araf (1.35 Å); dimer in the asymmetric unit; sitting-drop vapor diffusion, 20 °C
protein,measurement,value
B1,stoichiometry N,2
